For data set [1], the target named is Brevibacillus massiliensis tungsten-containing oxidoreductase (BmWOR) (Brevibacillus massiliensis).
A further data set relates to CC(C)CC=O. Kind of data set: purified protein. Conditions: apparent Km, benzyl viologen 1 mM as electron acceptor, 50 mM HEPES pH 7.5, 35 °C, anaerobic.
In another data set the test system is O=C/C=C/c1ccccc1. Kind of data set: purified protein. Particulars: apparent Km, benzyl viologen 1 mM as electron acceptor, 50 mM HEPES pH 7.5, 35 °C, anaerobic.
A further data set deals with O=Cc1ccccc1. Kind of data set: purified protein. Particulars: apparent Km, benzyl viologen 1 mM as electron acceptor, 50 mM HEPES pH 7.5, 35 °C, anaerobic.
The next data set relates to O=Cc1ccco1. Kind of data set: purified protein. Conditions: apparent Km, benzyl viologen 1 mM as electron acceptor, 50 mM HEPES pH 7.5, 35 °C, anaerobic.
A further data set deals with BmWOR (Brevibacillus massiliensis, UniProt Z9C1J5R5O5). Kind of data set: benzyl viologen reduction followed at […] nm. Conditions: apparent Km; benzyl viologen 1 mM as electron acceptor, 50 mM HEPES pH 7.5, 35 °C, anaerobic.
Chain of BmWOR (Z9C1J5R5O5 1-602): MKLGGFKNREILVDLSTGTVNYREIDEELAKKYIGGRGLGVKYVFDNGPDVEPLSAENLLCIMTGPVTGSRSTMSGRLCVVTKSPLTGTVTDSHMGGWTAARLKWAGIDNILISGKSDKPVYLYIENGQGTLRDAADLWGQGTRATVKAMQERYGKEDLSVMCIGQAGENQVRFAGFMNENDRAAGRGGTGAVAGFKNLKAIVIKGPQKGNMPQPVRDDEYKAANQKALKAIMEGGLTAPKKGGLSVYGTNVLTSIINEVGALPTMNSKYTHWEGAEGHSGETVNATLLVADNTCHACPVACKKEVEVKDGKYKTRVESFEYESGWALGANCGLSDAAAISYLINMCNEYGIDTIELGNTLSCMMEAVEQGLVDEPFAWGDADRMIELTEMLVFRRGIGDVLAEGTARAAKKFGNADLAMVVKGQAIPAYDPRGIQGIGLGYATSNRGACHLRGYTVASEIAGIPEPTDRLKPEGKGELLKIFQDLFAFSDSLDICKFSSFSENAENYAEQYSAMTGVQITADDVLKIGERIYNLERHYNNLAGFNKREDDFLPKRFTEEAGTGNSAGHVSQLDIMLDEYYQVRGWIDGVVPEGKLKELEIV

As to “Brevibacillus massiliensis ferredoxin (BmFd) (natural protein)”, the apparent Km for Fd as electron acceptor of BmWOR in the benzaldehyde oxidation assay (enzyme activity, Fd reduction followed at 425 nm) in data set [1] was under 5 µM.

Regarding BmWOR (Brevibacillus massiliensis), the Km with CC(C)CC=O came out at 3.6 ± 0.9 µM; with O=C/C=C/c1ccccc1 it was 5.6 ± 1.2 µM; with O=Cc1ccccc1, 4.2 ± 1.0 µM; with O=Cc1ccco1 it was 2.1 ± 2.0 µM.

Consider Tolualdehyde, for which, at BmWOR, the Km turned out to be 6.1 ± 2.1 µM.

The values above are taken from paper PMC9424855, “Obligately aerobic human gut microbe expresses an oxygen resistant tungsten-containing oxidoreductase for detoxifying gut aldehydes” (Frontiers in Microbiology, 2022).
